Assay results as given in publication PMC12980445.

System: MRA_0776 (Mycobacterium tuberculosis H37Ra)
Assay: BLI
Details: […] (pH not stated); BLI: PBST, 0.02% Tween-20, 30 C

dosR promoter (SN441-BIO)
Kd: 2880 nM
